Consider one substance from US20230220048A1.

As usually defined, the Kd is a measure of binding affinity in units of concentration.

This assay has as its target recombinant human FcRn (human) (UniProt P55899). Put plainly: SPR, pH 5.8 (comparison value, data not shown). (In general: SPR reads the build-up and loss of mass on a sensor chip optically.)

Sequence of recombinant human FcRn (human) (P55899 24-297): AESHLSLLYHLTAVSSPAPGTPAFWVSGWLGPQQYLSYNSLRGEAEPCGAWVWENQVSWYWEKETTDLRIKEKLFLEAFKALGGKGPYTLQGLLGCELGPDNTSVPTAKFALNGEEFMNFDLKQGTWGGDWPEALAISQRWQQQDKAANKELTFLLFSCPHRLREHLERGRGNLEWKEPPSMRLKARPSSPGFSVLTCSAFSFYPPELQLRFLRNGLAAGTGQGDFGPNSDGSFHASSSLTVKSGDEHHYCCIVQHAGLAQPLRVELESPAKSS

For “wild type HSA (from UniProt P02768 25-607)”, the Kd was 1000 to 2000 nM.
